The target of data set [1] is T1, EV71-C 3Dpol WT (Enterovirus 71 strain …, UniProt M4QLY4 1732-2193). Briefly: fluorescence polarization; 5 mM Mg2+; FP: 50 mM potassium glutamate pH 7.5, 50 mM arginine, 5 mM DTT, 5 mM MgCl2, 30 mM NaCl, 5% glycerol, 25 nM RNA, room temperature, at least 60 min. EC assembly:
(In general: In fluorescence polarisation assays a small probe gives low polarisation when free and higher when bound to something large.)

Data set [2] has as its target T1, EV71-C 3Dpol WT. Kind of data set: crystal structure (1.8 A); five Mg2+; elongation complex; FP: 50 mM potassium glutamate pH 7.5, 50 mM arginine, 5 mM DTT, 5 mM MgCl2, 30 mM NaCl, 5% glycerol, 25 nM RNA, room temperature, at least 60 min. EC assembly:
Data set [3] deals with T1, EV71-C 3Dpol WT. Briefly: crystal structure; ddCTP-soaked elongation complex; FP: 50 mM potassium glutamate pH 7.5, 50 mM arginine, 5 mM DTT, 5 mM MgCl2, 30 mM NaCl, 5% glycerol, 25 nM RNA, room temperature, at least 60 min. EC assembly:

B1: T31/P8F (structured_RNA)
RNA 1: GGGAGAUGAAAGUCUCCAGGUCUCUCGGAAA
RNA 2: UGUUCCGA
Regarding B1, the affinity with EV71-C 3Dpol WT [1], expressed as Kd, was 180 nM.

B2: T31/P12 (T31/P8 after GAGA incorporation) (structured_RNA)
RNA 1: GGGAGAUGAAAGUCUCCAGGUCUCUCGGAAA
RNA 2: UGUUCCGAGAGA
With B2, in the data set with EV71-C 3Dpol WT [2], the binding result is on record as “binds”.

B3: T31/P12 + ddCMP (structured_RNA)
RNA 1: GGGAGAUGAAAGUCUCCAGGUCUCUCGGAAA
RNA 2: UGUUCCGAGAGAC
modifications: 3'-terminal 2',3'-dideoxy-C on product strand
Regarding B3, the binding result with EV71-C 3Dpol WT [3] was “binds”.
